{"source": "patent US6514747B2", "about": "(UT-Battelle, LLC, priority 1993, dated 2003)", "key": {"[1]": {"molecular_target": "T1, human melanocortin 1 receptor (hMC1R) (Homo sapiens, UniProt Q01726)", "T1 construct": "The coding region of the human melanocortin 1, 3, and 5 receptor (hMC1R, hMC3R, and hMC5R) genes was amplified; expressed in transfected cells; host or cells: HEK-293 cells, cotransfected with pMT4 construct and pRSV-Neo, geneticin-selected clones", "T1 sequence (Q01726 whole entry)": "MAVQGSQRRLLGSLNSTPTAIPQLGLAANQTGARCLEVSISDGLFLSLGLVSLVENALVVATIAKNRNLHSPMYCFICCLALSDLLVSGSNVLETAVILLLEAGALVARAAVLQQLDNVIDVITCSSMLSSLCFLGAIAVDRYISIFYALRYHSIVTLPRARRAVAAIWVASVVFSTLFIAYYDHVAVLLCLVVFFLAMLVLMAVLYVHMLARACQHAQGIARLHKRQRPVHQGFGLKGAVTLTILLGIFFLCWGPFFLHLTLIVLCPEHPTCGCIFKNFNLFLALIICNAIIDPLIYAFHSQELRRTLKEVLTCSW", "experiment": "[Ca2+]i in HEK-293 cells transfected with hMC1R", "assay_type": "cell-based", "conditions": "FIG. 48, plateau at 400 s", "procedure": "The coding region of the human melanocortin 1, 3, and 5 receptor (hMC1R, hMC3R, and hMC5R) genes was amplified by polymerase chain reaction and subcloned into the vector pMT4, and the sequence was verified. HEK-293 cells, which appear to lack endogenous melanocortin receptors (Lu et al., 1994), were cotransfected with pMT4 and pRSV-Neo by either calcium phosphate coprecipitation method or the use of Transfectam reagent (Promega). Clones were selected using 600 μg geneticin/ml. culture medium.\n[Ca^2+]i was measured in L6, A7r5, and HEK-293 cells (Zemel et al., 1995) as previously described and in 3T3-L1 cells as described by Klip and Ramlal (1987). Monolayers of nonfused L6 cells and confluent A7r5 cells after 14-16 h of starvation in a serum-free culture medium were rinsed with Hanks' balanced salt solution (HBSS), detached by incubation in 2 ml trypsin (0.05%) for 2-3 min at 37° C., and released by pipetting without trypsinization. Cells were harvested by centrifugation at 50 g and resuspended in 1 ml HBSS at a density of ˜10^6 cells/ml. For 3T3-L1 cells, monolayers of differentiated adipocytes were rinsed with serum-free DMEM and exposed to 0.05% trypsin for 3 min. The solution was decanted, and the cells were incubated for 3 min in culture medium. Cells were detached by pipetting and collected by centrifugation at 50 g. Cells were then incubated in culture medium to recover for 1 h followed by incubation in serum-free DMEM for 4 h at 37° C. in an atmosphere of 5% CO2, collected by centrifugation, and resuspended in HBSS at a density of ˜10^6 cells/ml. Cell suspensions were chilled on ice for 5 min and loaded with […] (final concn) fura 2 acetoxymethyl ester (AM; Sigma) in the dark for 20 min at 37° C. For 3T3-L1 adipocytes, the chilling step was skipped. […] [Ca^2+]i levels were then measured fluorometrically in suspensions using dual excitation (340 and 380 nm)-single emission (510 nm) fluorometry as previously described (Zemel et al., 1995). [Ca^2+]i was then calculated by the computer in the fluorometer with the equation of Grynkiewicz et al. (1985). […]"}, "[2]": {"system": "L6 skeletal myocytes", "experiment": "[Ca2+]i in L6 skeletal myocytes (fura 2)", "assay_type": "cell-based", "conditions": "for [Ca2+]i Increase over Baseline: 400 s, n = 8"}}, "note": "Like-named read-outs stand apart in the source and are kept apart here.", "data": [{"molecule": "agouti: recombinant mouse agouti protein (131 amino acids, SEQ ID NO:2) produced with the baculovirus expression system in T. ni cells (protein, listed as Mus musculus) MDVTRLLLATLVSFLCFFTVHSHLALEETLGDDRSLRSNSSMNSLDFSSVSIVALNKKSKKISRKEAEKRKRSSKKKASMKKVARPPPPSPCVATRDSCKPPAPACCDPCASCQCRFFGSACTCRVLNPNC", "values": [{"measurement": "Vmax of [Ca2+]i dose-response fit", "setting": "[1]", "value": "108.2±1.337"}, {"measurement": "EC50", "setting": "[1]; read-out: K of [Ca2+]i dose-response fit", "value": "18.4 ± 0.706", "unit": "nM"}, {"measurement": "[Ca2+]i Increase over Baseline", "setting": "[2]; 5 nM Agouti", "value": "49 ± 8", "unit": "nM"}, {"measurement": "[Ca2+]i Increase over Baseline", "setting": "[2]; 25 nM Agouti", "value": "32 ± 1", "unit": "nM"}, {"measurement": "[Ca2+]i response", "setting": "[2]; 50 nM agouti, no channel blocker", "value": "49 ± 8", "unit": "nM"}, {"measurement": "Vmax of [Ca2+]i dose-response fit", "setting": "[2]; nonlinear least-squares, y=(Vmax·x)/(K+x)", "value": "123±15.63"}, {"measurement": "EC50", "setting": "[2]; nonlinear least-squares, y=(Vmax·x)/(K+x), read-out: K of [Ca2+]i dose-response fit", "value": "62.1 ± 19.4", "unit": "nM"}, {"measurement": "EC50", "setting": "[2]; response plateau at 400 s, read-out: apparent EC50 of [Ca2+]i response", "value": "62 ± 19", "unit": "nM"}]}]}
